In US7847064B2, “Methods and compositions for regulating gene expression in plant cells” (Donald Danforth Plant Science Center, priority 2004, dated 2010):

Columns and labels:
[1] = system: non-transgenic BY-2 protoplasts; assay: GUS activity of Box II/CaMV 35S chimeric promoters in non-transgenic BY-2 protoplasts; type: cell-based, tobacco; details: for increase in expression level above the construct without Box II: versus p-48CaMV and p-90CaMV respectively, normalized against GFP; for stimulation of gene expression versus the construct without Box II: Box II at 7 nucleotides from the TATA box plus multiples of 0.5 turns of DNA helix
Description: Specifically, the Box II element was fused to the 5′ end of the chimeric promoters with a space of 7 nucleotides from the TATA box plus 1, 1.5, 3.0, 3.5, 5.0 and 5.5 “turns of DNA helix” (one turn=10.4 base pairs). The chimeric promoters were then inserted into a cassette with the uidA coding sequencing and Nos terminator.
Construction of Plasmids Comprising the Box II Element and Different Lengths of the CaMV 35S Promoter—To construct Box II and CaMV 35S chimeric promoters, the Box II element was introduced into CaMV 35S promoter sequences of different lengths through PCR reactions using Pfu DNA polymerase (Stratagen Systems, Kirkland, Wis.). Forward primers for the PCR reactions were designed to have a HindIII restriction site, followed by the Box II sequence, which was followed by part of the 5′ CaMV promoter at desired positions (see FIG. 12 and Table 2 for specific primer sequences). The GUS 3′ primer (SEQ ID NO:36) was used as reverse primer for all reactions.
The p35S:GUS plasmid was used as template in the foregoing reactions. In the p35S:GUS plasmid, a NcoI restriction site was located between the CaMV 35S promoter and the GUS coding sequence. Thus, a NcoI site was present in all PCR products. The PCR products were restricted with HindIII/NcoI and cloned into a pE:GUS vector to replace the E promoter through the same set of restriction sites. The constructed plasmids containing the chimeric promoters labeled 1 through 6 in Table 2 were named p-1.0hBoxII−48CaMV:GUS, p-1.5hBoxII−53CaMV:GUS, p-3.0hBoxII−69CaMV:GUS, p-3.5hBoxII−74CaMV, p-5.0hBoxII−90CaMV:GUS, and p-5.5hBoxII−95CaMV:GUS, respectively. The controls for this set of plasmids were generated using primer sets 1.5h-53CaMV-c (SEQ ID NO:43)/GUS3′; −3.5h-74CaMV-c (SEQ ID NO:44)/GUS3′ and −5.5h-95CaMV-c (SEQ ID NO:45)/GUS3′, which products were cloned into pE:GUS with HindIII/NcoI to replace the E promoter. The derived plasmids/constructs were named p-53CaMV:GUS, p-74CaMV:GUS and p-95CaMV:GUS, respectively.
The foregoing constructs were then transfected into non-transgenic BY-2 protoplasts, and the resulting GUS activity determined.

Box IIm1 element = assay: Electrophoretic mobility shift assay; type: binding; details: 100 ng purified protein, 32P-labeled Box IIm1 DNA probe
Procedure: The purified mutant proteins were then analyzed by SDS-PAGE to confirm that each protein was its expected size (FIG. 16(B)). To confirm that each of the mutant proteins bind to the DNA target, i.e., the Box II element and/or its operational derivatives, gel mobility shift assays were carried out with the purified recombinant proteins (FIG. 16(C)). The electrophoretic mobility shift assays were carried out essentially as described in Yin and Beachy (1995). 100 ng of proteins purified from the transformed E. coli were incubated with ^32P-labeled Box IIm1 DNA probe followed by electrophoresis in a 5% acrylamide gel (Yin et al., 1997) (FIG. 16(C)).

pBII-48Ca::GUS = assay: Transactivation of pBII-48Ca::GUS by RF2a and RF2a mutants in BY-2 protoplasts; type: cell-based, tobacco; details: co-transfected with pBII-48Ca::GUS, 24 hours after electroporation, normalized with GFP
Procedure: The relative activity of RF2a and the RF2a mutants (described in Example 8) was then measured. First, a chimeric promoter was developed with a single copy of the Box II element fused to the 5′ end of a minimal CaMV 35S promoter comprising nucleotides −48 to +8 (SEQ ID NO:66). The chimeric promoter was ligated to the uidA coding sequence to create the reporter pBII-48Ca::GUS.
To analyze the function of the several domains of RF2a, effectors were created by inserting coding sequences of RF2a or the mutants of RF2a (described in Example 8) downstream of the enhanced CaMV 35S promoter in the pMON999 vector (a gift from Monsanto Company, St. Louis, Mo.). The resultant constructs, p35S::RF2a, p35S::RF2a-ΔP, p35S::RF2a-ΔQ, p35S::RF2a-ΔPΔA, p35S::RF2a-ΔPΔQ and p35S::RF2a-3Δ, were co-transfected into BY-2 protoplasts with pBII-48Ca::GUS (FIG. 17(A)). Plasmid pCat-GFP, in which the GFP gene was driven by CaMV 35S promoter, was co-introduced to serve as an internal control. The following describes, in greater detail, the construction of these vectors and the methods employed in transfecting the same into BY-2 protoplasts.
Plasmids for protoplast transfection—The coding sequences for mutants of RF2a were released from pET28a-derived plasmids and cloned into the plant expression vector pMON999 (a gift from Monsanto Company, St. Louis, Mo.) to place each gene downstream of an enhanced CaMV 35S promoter, followed by a nopaline synthase terminator sequence. The resulting effector constructs were named p35S::RF2a, p35S::RF2a-ΔP, p35S::RF2a-ΔQ, p35S::RF2a-ΔPΔA, p35S::RF2a-ΔPΔQ and p35S::RF2a-3Δ. The reporter gene construct, pBII-48Ca::GUS, was built using PCR to introduce the Box II element into a minimal CaMV 35S promoter comprising nucleotides −48 to +8 with primers BII-48Ca 5′ (SEQ ID NO:53) (which contained the Box II element) and GUS 3′ (SEQ ID NO:36) using a p35S:GUS plasmid as template. The PCR product was restricted with HindIII and NcoI, and the resulting fragment was inserted into p35S::GUS to replace the original 35S promoter.
Transfection of tobacco BY-2 protoplasts—The protoplasts were isolated from tobacco cell line BY-2 as described by Watanabe et al. (1987). Approximately one million protoplasts were transfected by electroporation with 20 μg of effector construct DNA, 15 μg of herring sperm DNA, 2.5 μg of reporter gene construct DNA, and 15 μg of pCat-GFP DNA. In samples with reporter gene alone, the total amount of DNA was adjusted by adding 20 μg of herring sperm carrier DNA. The electroporation parameters used were 300 V and 250 microfarads with the Bio-Rad electroporation system (Bio-Rad Laboratories, Hercules, Calif.). Protoplast samples were cultured in Murashige and Skoog medium with 0.4 M mannitol, pH 5.8, at 28° C. The protoplasts were collected 24 hours after electroporation.

[2] = system: Nicotiana tabacum cv. Xanthi NN; assay: Phenotype of transgenic tobacco plants overexpressing RF2a or RF2a mutants; type: in vivo; details: CaMV 35S promoter driven, T1 generation, greenhouse
Description: (Yin et al., 1997; Petruccelli et al., 2001). […] Fifteen or more independent transgenic tobacco lines were developed with the constructs described below through Agrobacterium-mediated transformation.
Plasmids for Agrobacterium-mediated transformation—The fusion genes described above relating to the plant expression constructs comprising RF2a deletion mutants were released from pMON999-derived plasmids using NotI (blunted) and cloned into the binary vector pGA-E::GUS (Petruccelli et al., 2001) using the blunt HindIII site (downstream of a CaMV 35S promoter sequence). The final plasmids were named pGA-E::GUS/P-35S::ΔP, pGA-E::GUS/P-35S::ΔQ, pGA-E::GUS/P-35S::ΔPΔA and pGA-E::GUS/P-35S::ΔPΔQ. A plasmid encoding full-length RF2a, p35S::RF2a, was also constructed using the methods described herein.
Tobacco transformation—the plasmids described above were introduced into Agrobacterium tumefaciens strain LBA4404 and used for tobacco transformation. Leaf discs from Nicotiana tabacum cv. Xanthi NN were transformed with the various plasmids following the protocol of Horsch et al. (1988). At least 15 independent transgenic lines were produced with each gene construct. Transgenic plants were self-fertilized, and T1 seeds were collected. The T1 seeds were germinated on Murashige and Skoog medium (Murashige and Skoog, 1962) with kanamycin (100 mg/L) selection, and Kan^r seedlings were grown in a greenhouse for observation.
The phenotype caused by 35S::RF2a-ΔPΔA was similar to, but less severe than, the phenotype caused by 35S::RF2a-3Δ. […] (FIG. 19(C)).

p1.0hBoxII−48CaMV: Box II fused to CaMV 35S promoter, 7 nucleotides from TATA box plus 1 turn of DNA helix (DNA TGATCAAAGCTTCCAGTGTGCCCCTGGTCGCAAGACCCTTCCTC; listed as DNA, chemistry not given here)
increase in expression level above the construct without Box II [1]: 6.9 fold

p5.0hBoxII−90CaMV: Box II fused to CaMV 35S promoter, 7 nucleotides from TATA box plus 5.0 turns (DNA TGATCAAAGCTTCCAGTGTGCCCCTGGATCTCCACTGACGTAAG; listed as DNA, chemistry not given here)
increase in expression level above the construct without Box II [1]: 4.7 fold

p-1.5hBox II−53CaMV: Box II fused to CaMV 35S promoter, 7 nucleotides from TATA box plus 1.5 turns (DNA TGATCAAAGCTTCCAGTGTGCCCCTGGATCCTTCGCAAGACCCT; listed as DNA, chemistry not given here)
stimulation of gene expression versus the construct without Box II [1]: much less or no stimulation of gene expression

p-3.5hBox II−74CaMV: Box II fused to CaMV 35S promoter, 7 nucleotides from TATA box plus 3.5 turns (DNA TGATCAAAGCTTCCAGTGTGCCCCTGGGGGATGACGCACAATCC; listed as DNA, chemistry not given here)
stimulation of gene expression versus the construct without Box II [1]: much less or no stimulation of gene expression

p-5.5hBox II−95CaMV: Box II fused to CaMV 35S promoter, 7 nucleotides from TATA box plus 5.5 turns (DNA TGATCAAAGCTTCCAGTGTGCCCCTGGGTGATATCTCCACTGAC; listed as DNA, chemistry not given here)
stimulation of gene expression versus the construct without Box II [1]: much less or no stimulation of gene expression

B1: RF2a-ΔP: RF2a mutant, proline-rich domain removed, SEQ ID NO:68 (protein)
chain: MGHRRAHSEILSLPEDLDLCAAGGGDGPSLSDENDEELFSMFLDVEKLNSTCGASSEAEAESSSAAAHGARPKHQHSLSMDESMSIAEELVGASPGTEGMSSAEAKKAVSAVKLAELALVDPKRAKRIWANRQSAARSKERKMRYIAELERKVQTLQTEATTLSAQLALLQRDTSGLTTENSELKLRLQTMEQQVHLQDALNDTLKSEVQRLKVATGQMANGGGMMMNFGGMPHQFGGNQQMFQNNQAMQSMLAAHQLQQLQLHPQAQQQQVLHPQHQQQQPLHPLQAQQLQQAARDLKMKSPMGGQSQWGDGKSGSSGN
modifications: This sequence was artificially derived and/or created by the inventors.
binding in gel mobility shift assay (Box IIm1 element): bind to the Box IIm1 element
activation function (relative GUS activity) (pBII-48Ca::GUS): greater than that of full-length RF2a
phenotype of transgenic tobacco plants [2]: did not exhibit abnormal phenotypes

B2: RF2a-ΔQ: RF2a mutant, glutamine-rich domain removed, SEQ ID NO:69 (protein)
chain: MNREKSPIPGDGGDGLPPQATRRAGPPAAAAAAEYDISRMPDFPTRNPGHRRAHSEILSLPEDLDLCAAGGGDGPSLSDENDEELFSMFLDVEKLNSTCGASSEAEAESSSAAAHGARPKHQHSLSMDESMSIKAEELVGASPGTEGMSSAEAKKAVSAVKLAELALVDPKRAKRIWANRQSAARSKERKMRYIAELERKVQTLQTEATTLSAQLALLQRDTSGLTTENSELKLRLQTMEQQVHLQDALNDTLKSEVQRLKVATGQMANGGGMMMNFGGMPHQ
modifications: This sequence was artificially derived and/or created by the inventors.
binding in gel mobility shift assay (Box IIm1 element): bind to the Box IIm1 element
activation function (relative GUS activity) (pBII-48Ca::GUS): greater than that of full-length RF2a
phenotype of transgenic tobacco plants [2]: did not exhibit abnormal phenotypes
